Experimental data reported in patent publication US20190241662A1 (ADAGENE, published 2019).

Legend:
[1] = target: T1, human TNFR1 on HEK293F cells (human, UniProt P19438 30-455); assay: flow cytometry, transfected HEK293F cells [Cont.]
T1 construct: whole, on cells; also called CD120a
T1 sequence (looked up): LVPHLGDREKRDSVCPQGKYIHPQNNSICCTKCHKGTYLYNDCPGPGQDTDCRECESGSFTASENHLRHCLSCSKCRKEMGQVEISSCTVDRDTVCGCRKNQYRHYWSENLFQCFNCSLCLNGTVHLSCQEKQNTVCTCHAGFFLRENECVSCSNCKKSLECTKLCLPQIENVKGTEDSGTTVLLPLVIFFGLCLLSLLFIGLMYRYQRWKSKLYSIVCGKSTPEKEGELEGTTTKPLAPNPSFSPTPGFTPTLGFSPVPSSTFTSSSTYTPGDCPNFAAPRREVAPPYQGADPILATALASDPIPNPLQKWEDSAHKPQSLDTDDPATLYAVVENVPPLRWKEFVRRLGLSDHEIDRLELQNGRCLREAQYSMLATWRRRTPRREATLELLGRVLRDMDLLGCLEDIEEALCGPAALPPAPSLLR
Method: (§1) Antibody selectivity was next examined. Human CTLA4, PD1, LAG3, Tim3, B7H3, CD95, TNFR1, OX40, CD40, PD-L1, BLTA, VISTA, PDL2, ICOS and B7H4 were transiently overexpressed on the surface of HEK293F cells. Transfected cells were washed in pre-chilled 1×PBSA buffer (1.76 mM KH2PO4, 10.14 mM Na2HPO4.12H2O, 2.68 mM KCl, 136.89 mM NaCl and 1% BSA), then incubated with 100 nM test antibodies for 1 hour on ice. Cells were washed once with staining buffer, and Alexa Fluor® 647 conjugated mouse anti-human FC antibodies were added and incubated for 30 minutes on ice, protected from light. Samples were washed once with staining buffer prior to analysis by flow cytometry.

[2] = target: T2, human LAG3 on HEK293F cells (human, UniProt P18627 23-525); assay: flow cytometry, transfected HEK293F cells [Cont.]
T2 construct: whole, on cells
T2 sequence (looked up): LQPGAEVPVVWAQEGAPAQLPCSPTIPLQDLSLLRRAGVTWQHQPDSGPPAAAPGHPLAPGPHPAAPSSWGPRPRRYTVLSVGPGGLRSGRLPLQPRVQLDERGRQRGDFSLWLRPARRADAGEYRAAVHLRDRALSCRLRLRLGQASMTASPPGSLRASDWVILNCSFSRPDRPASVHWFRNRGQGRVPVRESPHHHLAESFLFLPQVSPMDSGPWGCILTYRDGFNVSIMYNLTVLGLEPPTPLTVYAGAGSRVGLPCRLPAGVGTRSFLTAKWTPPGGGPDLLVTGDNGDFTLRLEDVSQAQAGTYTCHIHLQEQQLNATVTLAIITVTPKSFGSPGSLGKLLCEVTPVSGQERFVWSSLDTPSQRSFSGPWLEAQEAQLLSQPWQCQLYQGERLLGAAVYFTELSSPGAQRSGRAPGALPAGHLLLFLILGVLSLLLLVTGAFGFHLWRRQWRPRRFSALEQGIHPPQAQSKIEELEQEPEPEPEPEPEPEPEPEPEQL
Method: as §1

[3] = target: T3, human B7H3 on HEK293F cells (human, UniProt Q5ZPR3 29-534); assay: flow cytometry, transfected HEK293F cells, 100 nM antibody [Cont.]
T3 construct: whole, on cells
T3 sequence (looked up): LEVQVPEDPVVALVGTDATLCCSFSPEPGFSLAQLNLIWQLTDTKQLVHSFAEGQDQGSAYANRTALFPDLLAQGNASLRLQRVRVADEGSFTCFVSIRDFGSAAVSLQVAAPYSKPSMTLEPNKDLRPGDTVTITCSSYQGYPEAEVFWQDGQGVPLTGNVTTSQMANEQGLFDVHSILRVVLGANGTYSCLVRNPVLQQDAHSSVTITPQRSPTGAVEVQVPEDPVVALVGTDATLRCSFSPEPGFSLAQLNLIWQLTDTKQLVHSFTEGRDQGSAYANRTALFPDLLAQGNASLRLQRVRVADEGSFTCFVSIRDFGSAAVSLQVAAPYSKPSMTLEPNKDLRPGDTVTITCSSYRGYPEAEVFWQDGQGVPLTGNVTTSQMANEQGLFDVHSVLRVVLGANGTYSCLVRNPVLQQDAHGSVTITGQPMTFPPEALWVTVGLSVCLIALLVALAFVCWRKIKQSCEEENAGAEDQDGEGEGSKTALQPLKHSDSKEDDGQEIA
Method: as §1

[4] = target: T2, human LAG3 on HEK293F cells; assay: as above
Method: as §1

[5] = target: T4, full-length mouse CTLA4 expressed on HEK293F cells (mouse, UniProt P09793 36-223); assay: flow cytometry, transfected HEK293F cells, antibody concentration not given
T4 construct: whole, on cells
Method: (§2) The affinities of the antibodies were also assessed against human and mouse CTLA4 transiently expressed on the surface of HEK293F cells (FIG. 2). Briefly, HEK293F cells were transfected with a plasmid expressing full-length human, monkey or mouse CTLA4 from a bicistronic IRES vector also encoding EGFP, and EGFP expression was used to identify the transfected cells. After 48 hours, the mammalian cell suspension (2×10⁵/well) was transferred to an Eppendorf tube, centrifuged, the supernatant was discarded, the cells were resuspended with 1 mL PBSA (to a density is 4×10⁶ cells/mL), and added to a 96 well plate. […] The cells were then washed once prior to analysis by flow cytometry (Beckman® CytoFlex).

[6] = target: T5, full-length human CTLA4 expressed on cells (human, UniProt P16410 36-223); assay: as above
T5 construct: whole, on cells; also called HEK293F/hCTLA-4 cells; HEK293F/hCTLA4 cells
T5 sequence (looked up): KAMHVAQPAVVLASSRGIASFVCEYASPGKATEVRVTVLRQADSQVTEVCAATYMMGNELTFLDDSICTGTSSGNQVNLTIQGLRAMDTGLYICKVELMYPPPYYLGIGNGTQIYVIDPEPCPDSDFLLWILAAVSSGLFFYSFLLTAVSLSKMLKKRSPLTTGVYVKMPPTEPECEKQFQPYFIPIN
Method: as §2

B1: TY21591 (antibody, V domains shown)
VH: EVQLVESGGGLVQPGGSLRLSCAASGFSLSTGGVAVSWIRQAPGKGLEWIGEIYHSGSTYYSPSLKSRVTISRDNSKNTLYLQLNSLRAEDTAVYYCARRIATATYFDYWGQGTLVTVSS
VL: DIQLTQSPSSLSASVGDRVTITCRASQTVFSRYLAWYQQKPGKAPKLLIYDASNRATGIPSRFSGSGSGTDFTLTISSLQPEDFATYYCQQSYYWPPWTFGQGTKVEIK
notes: human IgG1 (hIgG1) from Fab hit B15756
B1: no binding (tested: 100 nM) [1].

B2: TY21687 (antibody, V domains shown)
VH: EVQLVESGGGLVQPGGSLRLSCAASGFTFSGYAIHWVRQAPGKGLEWIGIISPSGGGTKYAQKFQGRVTISRDNSKNTLYLQLNSLRAEDTAVYYCARHPFAYWGQGTLVTVSS
VL: DIQLTQSPSSLSASVGDRVTITCRASQSVDFYGISFLDWYQQKPGKAPKLLIYDASNRATGIPSRFSGSGSGTDFTLTISSLQPEDFATYYCQQYVSSPPEYTFGQGTKVEIK
notes: human IgG1 (hIgG1) from Fab hit B15700
B2 was tested, and the binding result [2] was “no binding (tested: 100 nM)”, the “% of cells in upper right quadrant (Q2)” value [3] was 1.29% and the “% of cells in upper right quadrant (Q2)” value [4] was 1.31%.

B3: TY21585 (antibody, V domains shown)
VH: EVQLVESGGGLVQPGGSLRLSCAASGFTFSDYAIHWVRQAPGKGLEWIGIISPSSGSTNYAQKFQGRVTISRDNSKNTLYLQLNSLRAEDTAVYYCARDIHSGSSGYYYGFDVWGQGTLVTVSS
VL: DIQLTQSPSSLSASVGDRVTITCRASESVDFFGISFLAWYQQKPGKAPKLLIYDASNRATGIPSRFSGSGSGTDFTLTISSLQPEDFATYYCQHYTSSPPVYTFGQGTKVEIK
notes: human IgG1 (hIgG1) from Fab hit B15709
For B3, the “% of cells in upper right quadrant (Q2)” value [5] was 30.8% and the “% of cells in upper right quadrant (Q2)” value [6] was 25.7%.
